This is an account of results in article PMC6837886.

Series [1] has as its target T1, UP1 (RRM1-RRM2 fragment of hnRNP A1) (UniProt P09651 1-196). The series is described as follows: ITC.
For series [2], the target named is T1, UP1 (RRM1-RRM2 fragment of hnRNP A1). The series is described as follows: NMR.
Series [3] has the same target. Kind of series: NMR. The source holds these as a separate data set.
Series [4] shares this target. Kind of series: ITC. The source holds these as a separate data set. A general note: In ITC the heat of successive injections is recorded.
Series [5] shares this target. The series is described as follows: NMR. The source holds these as a separate data set.

T1 sequence (P09651 1-196): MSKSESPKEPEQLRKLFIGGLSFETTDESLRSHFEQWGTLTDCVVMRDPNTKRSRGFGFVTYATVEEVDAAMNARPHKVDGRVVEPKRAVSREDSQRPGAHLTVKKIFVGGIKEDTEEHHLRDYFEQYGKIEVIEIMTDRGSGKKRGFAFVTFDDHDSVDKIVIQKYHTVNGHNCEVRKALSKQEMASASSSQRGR

B1: SMN2 exon 7 ESE1 hairpin (structured_RNA)
RNA: GCACCACACGGGUUUUAGACAAAAUCCG
One may read the Kd as the concentration at which binding is half-saturated. Higher therefore signals lower affinity. In the case of B1, the Kd is 47.4 ± 19.7 µM in series [1] and 100 ± 20 µM in series [2].

B2: EV2 (structured_RNA)
RNA: GCACCACAGGAUCAAUAGCAGGUGUGGCACACCAGUCAUACCUUGAUCC
On to B2, for which the values for the Kd in series [3] and in series [4] were 11.1 ± 5.1 µM and 5.1 ± 1.9 µM, respectively.

B3: RNA0 (ssRNA)
RNA: GCACCACACG
As for B3, the Kd in series [5] worked out at 978 ± 162 µM.

B4: SMN1 exon 7 ESE1 hairpin (structured_RNA)
RNA: GCACCACACGGGUUUCAGACAAAAUCCG
Regarding B4, the values for the Kd in series [1] and in series [5] were 51.3 ± 2.5 µM and 101 ± 29 µM, respectively.
